From patent publication US20150118233A1 come the findings set out here.

Usually IC50 stands for the concentration that gives 50% inhibition. Low values mean greater potency, high ones weaker potency. Usually Kd stands for a measure of binding affinity in units of concentration. High values mean weaker binding, low ones tighter binding. As a reminder, the koff is the first-order rate constant of dissociation. High values mean a short-lived complex, low ones a long-lived complex. Broadly, the kon is the rate constant with which the complex forms. A low value points to slow association.

A value given as a limit tells only on which side of the number the result lay.

Assay [1] has as its target hRSV FTM- NN protein (membrane anchorless form of the Long fusion protein, 70 kDa) (hRSV strain Long). In words: Alphascreen competition: FTM- NN (0.3 nM) bridged by biotinylated Synagis Fab and 101F Fab acceptor beads. A general note: Bead proximity is the source of the signal in Alpha formats.
Assay [2] has as its target F protein of Long escape mutant R7C2/1 (K272E in antigenic site II) (hRSV strain Long escape mutant). Nature of the assay: cell-based or functional assay.
Assay [3] addresses F protein of hRSV strain B-1 (hRSV strain B-1). In words: cell-based or functional assay.
Assay [4] has as its target F protein of hRSV strain A-2 (hRSV strain A-2). Nature of the assay: cell-based or functional assay.
In assay [5] the target is F protein of Long escape mutant R7C2/11 (antigenic site II) (hRSV strain Long escape mutant). In words: cell-based or functional assay.
Assay [6] has as its target F protein of hRSV strain Long (hRSV strain Long). In words: cell-based or functional assay.
In assay [7] the target is hRSV FTM- NN protein (membrane anchorless form of the Long fusion protein, 70 kDa) (hRSV strain Long). In words: SPR (Biacore T100), FTM- NN amine-coupled, 1:1 Langmuir fit. Background: SPR reads the build-up and loss of mass on a sensor chip optically.

Sequence of F protein of hRSV strain B-1 (hRSV strain B-1) (chain, as listed by the source limits assumed): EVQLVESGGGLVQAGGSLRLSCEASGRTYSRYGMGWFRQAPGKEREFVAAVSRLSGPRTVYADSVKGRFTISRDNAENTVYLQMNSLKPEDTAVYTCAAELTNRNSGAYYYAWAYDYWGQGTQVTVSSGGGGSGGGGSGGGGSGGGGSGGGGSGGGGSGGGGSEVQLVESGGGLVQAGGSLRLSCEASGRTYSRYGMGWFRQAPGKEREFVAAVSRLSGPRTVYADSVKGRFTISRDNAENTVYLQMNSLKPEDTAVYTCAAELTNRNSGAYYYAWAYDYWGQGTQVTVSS
Sequence of F protein of hRSV strain A-2 (hRSV strain A-2) (chain, as listed by the source limits assumed): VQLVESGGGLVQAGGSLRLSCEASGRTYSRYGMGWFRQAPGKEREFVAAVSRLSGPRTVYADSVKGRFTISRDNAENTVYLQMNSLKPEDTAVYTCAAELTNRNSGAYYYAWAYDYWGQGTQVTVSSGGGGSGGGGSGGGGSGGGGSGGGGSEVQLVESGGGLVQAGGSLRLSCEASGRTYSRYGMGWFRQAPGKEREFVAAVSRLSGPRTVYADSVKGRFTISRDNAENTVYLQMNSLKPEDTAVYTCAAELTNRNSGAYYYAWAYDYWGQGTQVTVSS
Sequence of F protein of Long escape mutant R7C2/1 (K272E in antigenic site II) (hRSV strain Long escape mutant) (chain, as listed by the source): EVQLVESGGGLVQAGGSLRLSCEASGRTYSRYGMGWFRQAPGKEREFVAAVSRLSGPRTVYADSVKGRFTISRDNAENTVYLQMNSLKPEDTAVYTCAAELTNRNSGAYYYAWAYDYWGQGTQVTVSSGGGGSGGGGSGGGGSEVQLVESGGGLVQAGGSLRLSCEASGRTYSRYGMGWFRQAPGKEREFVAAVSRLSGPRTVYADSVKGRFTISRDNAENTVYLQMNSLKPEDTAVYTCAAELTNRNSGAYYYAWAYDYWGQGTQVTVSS

For 101F Fab, the IC50 in assay [1] turned out to be 1.12 nM.

In assay [1], Numax Fab (Motavizumab or MEDI-524) showed an IC50 of 0.086 nM.

Substance “Synagis® (Palivizumab, humanized monoclonal antibody)” registered a neutralization of escape mutant virus, IC50 in assay [2] greater than 0.2 µM. In assay [3], this substance yielded a Neutralization IC50 (first assay) of 2.1 nM, a Neutralization IC50 (second assay) of 2.9 nM and an RSV neutralization IC50 of 1.7 nM. Moreover, the RSV neutralization IC50 in assay [4] is 2.5 nM. The same substance showed a neutralization of escape mutant virus, IC50 in assay [5] greater than 0.2 µM. In assay [6], the Neutralization IC50 (first assay) is 7.3 nM, the Neutralization IC50 (second assay) amounted to 6 nM and the RSV neutralization IC50 worked out at 4 nM. In assay [7], this substance gave a Kd of 0.64 nM, a koff of 0.00018 s⁻¹ and a kon of 280000 M⁻¹ s⁻¹.
